Measurements as given in US9889179B2, “FGF-18 compound dosing regimen” (MERCK PATENT GMBH, priority 2014, dated 2018).
Entries after “also recorded” stand apart in the source; their conditions may differ. Like-named read-outs stand apart in the source and are kept apart here.

How the values were obtained:
RA = settings: human, in vivo; cited from earlier work
OA symptoms = settings: cited from earlier work
[1] = system: medial meniscal tear in the right knee joint; assay type: in vivo, Male Lewis rats; settings: for swelling scores versus vehicle controls: days 24-29, 31, 36-43
Protocol: Male Lewis rats underwent surgery to induce a medial meniscal tear in the right knee joint. Animals were dosed i.a. with FGF-18 (10 μg/joint) on days 21, 28, and 35 and dosed orally with diclofenac (either 1 mg/kg or 3 mg/kg) or vehicle on days 21-23, 28-30, and 35-37, then terminated on day 42 or day 63. Serum was collected and evaluated for alpha 2 macroglobulin (α2MG) levels on days −3, 21, 42, and 63. α2MG is an inflammation serum biomarker. The link between α2MG and inflammation has already been shown (Kuribayashi et al., 2013).

[2] = system: full-thickness defect in the articular cartilage of the trochlear groove; assay type: in vivo, New Zealand White rabbits
Excerpt: 60 adult male, naïve, New Zealand White rabbits were used for this study. Animals were approximately 3-4 months of age. Rabbits underwent surgery for creation of the cartilage defect right knee. A 2 mm by 6 mm full-thickness defect was made in the articular cartilage of the trochlear groove. The microfracture was created using 18 gauge needles. Two 3 mm deep microfractures were made through the subchondral bone at the base of the defect, one proximally and one distally. Each microfracture hole was approximately 1.5 mm in diameter and the holes separated by 2 mm. The experiment consisted of the following six treatment groups, with 10 animals in each group for a total of 60 rabbits (Table 2). Rabbits in Groups 3, 4, 5 and 6 were treated with intra-articular rhFGF-18 in either one cycle of three weekly injections of 100 μg of rhFGF-18 (Group 3 and 5) or one cycle of three monthly injections of 100 μg of rhFGF-18 (Group 4 and 6). All animals were euthanized and necropsied 6 months after surgery. [table]

[3] = system: rat model of OA (ACLT with tMx); assay: ACLT+tMx rat model of OA, intracycle dosing frequency of sprifermin (Example 6); assay type: in vivo, male Lister Hooded Rats
Protocol: The goal of this study was to evaluate the effect of different intracycle dosing frequency of the same total dosage (3×1 μg) of sprifermin on cartilage volume in a rat model of OA. The anterior cruciate ligament transection (ACLT) with resection of the medial meniscus (tMx) was performed as disclosed in Example 1. Joints from male Lister Hooded Rats (200-260 g, Charles River) were used in this study. Animals were euthanized 18 weeks post-surgery.
The changes in the joint are related to clinical assessments in OA (cartilage loss, osteophytes, subchondral sclerosis). One μg sprifermin in saline was injected three times either weekly, every 2nd, every 3rd, every 4th or every 5th week and compared to appropriate vehicle groups. Body weight, joint diameters and clinical health scores were investigated weekly.

[4] = system: ACLT+tMx model of instability-induced OA; assay: ACLT+tMx model of instability-induced OA, cartilage matrix deposition by Safranin-O (Example 1); assay type: in vivo, male Lewis rats
Protocol: The anterior cruciate ligament transection with resection of the medial meniscus (ACLT+tMx) model of instability-induced OA was performed in male Lewis rats 10-15 weeks of age. Briefly, under anesthesia with Isoflurane, the joint capsule of the right knee of each rat was opened, the anterior cruciate and the meniscus fixating ligaments were sharply transected, the meniscus was removed and the capsule, muscles and skin closed by sutures. Animals were randomly allocated into 10 groups of n=10 each. The following dosages were investigated: 0, 0.3, 1, 3 and 10 μg per intra-articular injection. Groups 1-5 received one cycle of three single injections at weekly intervals, group 6-10 three single injections at monthly intervals. Intra-articular treatment was started three weeks post-surgery. At this time pathophysiological changes are already mainifest, e.g., cartilage matrix loss. Animals were euthanized 17 weeks after surgery and joints were investigated.

[5] = system: medial meniscal tear in the right knee joint; assay type: in vivo, Male Lewis rats
Protocol: After the sacrifice, the right knee was removed and decalcified in 5% formic acid for 4-6 d before cutting in half in the frontal plane and embedding in paraffin wax. Three sections were cut in 200 μm steps, stained with toluidine blue, and analyzed using ImagePro Plus™ software (Media Cybernetics). In scoring the three sections of the joint, the worst-case scenario for the two halves on each slide was determined for the cartilage lesion as the cartilage degeneration width (μm). This reflects the areas of tibial cartilage lesion in which both chondrocyte and proteoglycan loss extend 50% of the cartilage thickness. The measurement was taken over the area of greatest lesion severity in each of the three zones across the tibial surface.
A treatment group Mean±SE for each score and measurement was determined.
Data was analyzed using a one-way analysis of variance (1-way ANOVA) or Kruskal-Wallis test (non-parametric), along with an appropriate multiple comparison post-test. Right knee caliper measurements were compared to left using a Student's t-test. Unless indicated, Bolder BioPATH, Inc. performs statistical analysis on raw (untransformed) data only. […] Significance for all tests was set at p≦0.05. Comparisons were made between each group and the vehicle control group, as well as between pairs
Male Lewis rats underwent surgery (under anesthesia with Isoflurane) to induce a medial meniscal tear in the right knee joint. Animals were dosed IA with vehicle or FGF-18 on one of two different regimens (see table below), then terminated on day 105. Knees had caliper measurements taken at baseline and days 21, 42, 56, 84, and 105. Serum was evaluated for α2 macroglobulin levels at baseline and on days 21, and 105, as well as one week after the final dose (day 42 or 84). Right knees were collected for histopathology evaluation.

[6] = system: Primary articular porcine chondrocytes; assay: Porcine chondrocyte proliferation with or without IL1α challenge (Example 4); assay type: cell-based, pig; settings: 100 ng/mL; for increase in the cell number versus control (medium, no IL1α): 8 days of culture; for stimulation of proliferation versus control (medium, IL1α 10 ng/mL): 8 days
Protocol: Porcine chondrocytes were isolated from the cartilage of a femoral head of a pig hip (pigs were approximately one year old). After dissection of the joints, the cartilage was harvested and digested for 45 minutes with collagenase 0.25% ( 1/10 dilution of collagenase NBG4 2.5% in HAM's F12) at room temperature. The loosened cells were discarded and the cartilage further digested overnight with collagenase 0.1% ( 1/25 dilution of collagenase NBG4 2.5% in HAM's F12) at 37° C. to extract the chondrocytes. For this study, the chondrocytes were cultured in a monolayer.
Primary articular porcine chondrocytes were stimulated or not with 10 ng/mL IL1α and were either treated immediately or 6 hours later with anakinra 100 ng/mL and/or trFGF-18 100 ng/mL. Each condition was performed in 4 or 6-plicate. As a control, cells were also cultured with anakinra alone, trFGF-18 alone or in the absence of any treatment (medium).
Pre-culture: After cell isolation porcine chondrocytes were inoculated at 20,000 cells/cm^2 and cultivated for one week in complete HAM's F12. Cells were then harvested with accutase, counted and used as described below.
For cells treated directly with anakinra: Chondrocytes were inoculated in a 24-well plate at 15,000 cells/well in 0.5 mL of complete HAM's F12. Then 0.25 mL of trFGF-18 400 ng/mL and/or 0.25 mL of anakinra 400 ng/mL were added to the cells. In the challenged samples, 10 μL of IL1α at 1,000 ng/mL were also added to the cells. trFGF-18, anakinra and IL1α were all diluted in complete HAM's F12. The final volume in the culture well was adjusted to 1 mL with complete HAM's F12. Final concentrations were 10 ng/mL IL1α, 100 ng/mL trFGF-18 and 100 ng/mL anakinra and the total culture time was eight days. A complete medium change was performed after four days. N=4.
For cells treated with anakinra and trFGF-18 6 hours after the IL1α challenge: Chondrocytes were inoculated in a 24-well plate at 15,000 cells/well in 1 mL of complete HAM's F12 containing or not containing IL1α 10 ng/mL. After 6 hours the medium was removed and replaced with 0.25 mL trFGF-18 400 ng/mL and/or 0.25 mL of anakinra 400 ng/mL. In the challenged samples, 0.25 mL of IL1α at 40 ng/mL was also added to the cells. trFGF-18, anakinra and IL1α were all diluted in complete HAM's F12. The final volume in the culture well was adjusted to 1 mL with complete HAM's F12. Final concentrations were 10 ng/mL IL1α, 100 ng/mL trFGF-18 and 100 ng/mL anakinra and the total culture time was eight days. A complete medium change was performed after four days. N=6.
After eight days of culture, cells were harvested with accutase and resulting cell suspensions were analyzed for cell concentration and cell viability with a ViCell™ cell analyzer (from Beckman Coulter). […]

In the case of “anakinra: recombinant, nonglycosylated form of human interleukin-1 receptor antagonist (IL-1Ra), SEQ ID NO: 3”, the “joint damage in RA patients” value (RA) is listed as “reduction in frequency and severity of joint damage”, the “pain in RA patients” value (RA) is listed as “pain reduction” and the pain versus placebo (OA symptoms; anakinra 150 mg) is listed as “tendency toward pain reduction”. The “improvements in OA symptoms compared with placebo” value (OA symptoms; anakinra therapy) was “not significantly associated with improvements”.

With `O=C(O)Cc1ccccc1Nc1c(Cl)cccc1Cl` [diclofenac, 2-(2,6-dichloranilino) phenylacetic acid] the knee caliper measurements ([1]; diclofenac 1 mg/kg oral with FGF-18 i.a., any other time point) was “not significantly affected”, the knee caliper measurements ([1]; diclofenac 1 mg/kg oral with FGF-18 i.a., day 42) was “significantly reduced” and the “swelling scores versus vehicle controls” value ([1]; diclofenac 1 mg/kg oral with FGF-18 i.a.) was “significantly reduced”. The knee caliper measurements ([1]; diclofenac 3 mg/kg oral with FGF-18 i.a., any other time point) was “not significantly affected”, the knee caliper measurements ([1]; diclofenac 3 mg/kg oral with FGF-18 i.a., day 42) was “significantly reduced” and the “swelling scores versus vehicle controls” value ([1]; diclofenac 3 mg/kg oral with FGF-18 i.a.) was “significantly reduced”. The “serum α2MG levels, all groups” value ([1]; diclofenac 1 and 3 mg/kg with FGF-18, day 63) was “similar” and the “time for which effects on knee swelling were evident after the final dose of diclofenac” value ([1]; diclofenac 1 or 3 mg/kg with FGF-18) was “approximately one week”.

B1: trFGF-18: recombinant truncated form of human FGF-18 (170 amino acids, SEQ ID NO: 2), produced in E. coli (protein)
chain: MEENVDFRIHVENQTRARDDVSRKQLRLYQLYSRTSGKHIQVLGRRISARGEDGDKYAQLLVETDTFGSQVRIKGKETEFYLCMNRKGKLVGKPDGTSKECVFIEKVLENNYTALMSAKYSGWYVGFTKKGRPRKGPKTRENQQDVHFMKRYPKGQPELQKPFKYTTVTK
modifications: Recombinant truncated FGF-18(trFGF-18)
With B1 the “animals with intercondylar groove filled with cartilage” value ([2]; Group 4: no microfracture, monthly x3, nearly normal to slightly roughened or granular cartilage) was 6/9, the “animals with intercondylar groove filled” value ([2]; Group 6: microfracture, monthly x3, finely granular to granular cartilage) was 3/10 and the “animals with groove 50% filled to nearly completely filled” value ([2]; Group 6: microfracture, monthly x3, granular to coarsely granular cartilage) was 7/10. The “increase in defect fill percentages” value ([2]; no microfracture, monthly for three months, significant) was 48%, the necropsy findings ([2]; rabbit, in vivo) was “stimulation of osteophytes on the medial and lateral trochlear ridges” and the “cartilage denudation, stereology” value ([3]; 3 x 1 μg/joint, 18 weeks post-surgery) was “prevented more or less complete cartilage denudation”. For the same molecule, the “cartilage volume on medial tibia” value ([3]; One μg/joint once every 3rd week, three injections in total, listed as rhFGF-18) was “statistically significant difference over saline; also recorded: most beneficial structural outcome”, the “cartilage volume compared to placebo” value ([3]; all groups treated (weekly to every 5th week)) was “higher cartilage volume values” and the joint diameters ([3]; between injections every 2nd, 3rd or 4th week) was “No significant differences”. For the same molecule, the “AUC of joint diameters” value ([3]; injected every 5th week) was “the same as with saline injections”, the “joint diameters (AUC of joint diameter difference)” value ([3]; injections in week 3, 4 and 5 versus week 3, 8 and 13) was “significantly higher” and the body weight gain ([3]; intra-articular injections, 3 x 1 μg) was “no influence”. The “dose at which neo-formation of cartilaginous tissue became significant” value ([4]; lateral tibia, independently of the injection regime (three i.a. injections weekly or monthly), 17 weeks after surgery) was 1 μg/joint, the “dose at which neo-formation of cartilaginous tissue became significant” value ([4]; medial tibia, one-monthly regimen, three i.a. injections) was 0.3 μg/joint and the “dose at which neo-formation of cartilaginous tissue became significant” value ([4]; medial tibia, one-weekly regimen, three i.a. injections) was 1 μg/joint. For the same molecule, the “extent of injury over the tibial surface (collagen damage), histopathology” value ([5]; 10 μg IA, day 105) was “generally increased”, the “severity of tibial injury, histopathology” value ([5]; 10 μg IA, day 105) was “reducing its severity” and the “structural benefit (total joint score, substantial tibial cartilage degeneration width)” value ([5]; monthly injection scheme versus other regimens, 10 μg IA) was “highest”. For the same molecule, the overall morphology ([5]; three injections once monthly (Group 5; days 21, 49, 77)) was “best overall morphology”, the “increase in the cell number versus control (medium, no IL1α)” value ([6]; first experiment (direct treatment, N=4)) was 11.25 fold and the “increase in the cell number versus control (medium, no IL1α)” value ([6]; second experiment (6-hour delay, N=6)) was 7.75 fold. The “stimulation of proliferation versus control (medium, IL1α 10 ng/mL)” value ([6]; first experiment (direct treatment)) was 2.38 fold and the “stimulation of proliferation versus control (medium, IL1α 10 ng/mL)” value ([6]; second experiment (6-hour delay)) was 2.44 fold.
